We go through 6 substances from patent US20200247894A1.

Test [1] deals with human IL-2Rγ endogenously expressed on NK-92 and Jurkat cells (human) (UniProt P31785). Description: flow cytometry, 10 ug/ml isotype control, Jurkat cells (endogenous human IL-2Rg). In general terms: In flow cytometry, cells or beads pass a laser one at a time.
Test [2] deals with human IL-2Rγ expressed on cells (human) (UniProt P31785). In words: flow cytometry, isotype control at 10 µg/ml, MFI over unstained; upper end (NK-92 by Table 9-1).
Chain of human IL-2Rγ expressed on cells (human) (P31785 23-369): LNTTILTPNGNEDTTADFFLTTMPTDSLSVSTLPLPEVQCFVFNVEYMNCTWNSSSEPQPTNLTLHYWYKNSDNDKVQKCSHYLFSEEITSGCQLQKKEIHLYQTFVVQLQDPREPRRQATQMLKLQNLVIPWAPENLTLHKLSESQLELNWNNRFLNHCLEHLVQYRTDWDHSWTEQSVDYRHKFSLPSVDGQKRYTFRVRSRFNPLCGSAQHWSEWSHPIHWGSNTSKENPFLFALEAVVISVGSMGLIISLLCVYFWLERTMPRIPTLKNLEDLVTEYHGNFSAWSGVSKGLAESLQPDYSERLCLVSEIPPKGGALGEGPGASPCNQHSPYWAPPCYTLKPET
Test [3] addresses human IL-2Rγ endogenously expressed on NK-92 and Jurkat cells (human) (UniProt P31785). Description: flow cytometry, 10 ug/ml isotype control, NK-92 cells (endogenous human IL-2Rg).
The target of test [4] is mouse IL-2Rγ endogenously expressed on MC/9 cells (mouse) (UniProt P34902). Description: flow cytometry, 10 ug/ml isotype control, MC/9 cells (endogenous mouse IL-2Rg).
Chain of mouse IL-2Rγ endogenously expressed on MC/9 cells (mouse) (P34902 23-369): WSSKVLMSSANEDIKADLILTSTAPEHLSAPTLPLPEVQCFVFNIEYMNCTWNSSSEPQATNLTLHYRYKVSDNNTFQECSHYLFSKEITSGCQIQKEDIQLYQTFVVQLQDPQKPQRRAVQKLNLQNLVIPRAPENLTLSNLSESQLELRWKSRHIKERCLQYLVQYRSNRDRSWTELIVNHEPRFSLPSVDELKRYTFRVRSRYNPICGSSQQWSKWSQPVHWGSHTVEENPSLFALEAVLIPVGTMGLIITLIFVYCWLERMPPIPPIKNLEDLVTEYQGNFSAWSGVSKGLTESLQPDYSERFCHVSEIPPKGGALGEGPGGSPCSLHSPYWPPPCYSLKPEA
Test [5] deals with human IL-2Rγ endogenously expressed on NK-92 and Jurkat cells (human) (UniProt P31785). Description: flow cytometry, 10 ug/ml isotype control, NK-92 cells (endogenous human IL-2Rg). The source holds these as a separate data set.
For test [6], the target named is human IL-2Rγ expressed on cells (human) (UniProt P31785). Description: flow cytometry on NK-92 cells, isotype control at 10 µg/ml, MFI over unstained; the end 2 belongs to HEK293 (negative control cells) by Table 9-2.
For test [7] the target is unchanged. Description: flow cytometry, isotype control at 10 µg/ml, MFI over unstained; lower end (Jurkat by Table 9-1).
For test [8], the target named is human IL-2Rγ endogenously expressed on NK-92 and Jurkat cells (human) (UniProt P31785). In words: flow cytometry, secondary antibody alone (no primary), NK-92 cells (endogenous human IL-2Rg).
For test [9], the target named is mouse IL-2Rγ endogenously expressed on MC/9 cells (mouse) (UniProt P34902). In words: flow cytometry, secondary antibody alone (no primary), MC/9 cells (endogenous mouse IL-2Rg).
The target of test [10] is human IL-2Rγ endogenously expressed on NK-92 and Jurkat cells (human) (UniProt P31785). Description: flow cytometry, secondary antibody alone (no primary), NK-92 cells (endogenous human IL-2Rg). This is another data set of the same source.
The target is the same in test [11]. In words: flow cytometry, secondary antibody alone (no primary), Jurkat cells (endogenous human IL-2Rg).
For test [12], the target named is human IL2Rγ (endogenously expressed on cells) (human) (UniProt P31785). In words: cell-based or functional assay.
Chain of human IL2Rγ (endogenously expressed on cells) (human) (P31785 23-369): as the sequence (P31785 23-369) above
For test [13] the target is unchanged. In words: cell-based or functional assay. The source holds these as a separate data set.

Read-outs that look alike come from different tables or passages of the source.

Chain of human IL-2Rγ endogenously expressed on NK-92 and Jurkat cells (human) (P31785 23-369): as above

As for REGN1945 (antibody), the Binding Ratio (Sample over unstained MFIs) in test [1] is 1; in test [3] it was 13; in test [4], 1; in [5], 1. The Raw MFI in test [1] amounted to 92 MFI; in [3], 1890 MFI; in test [4], 196 MFI; in test [5], 223 MFI. Also, the binding ratio came to 13 in test [2], 1 in test [6] and 1 in test [7].
Take “anti-human antibody conjugated to allophycocyanin (APC) (Jackson ImmunoResearch, #109-136-170)”: the Binding Ratio (Sample over unstained MFIs) in test [8], in test [9] and in test [11] was 1 throughout. Further, the Raw MFI in test [8] is 210 MFI; in test [9] it was 173 MFI; in [10] it was 234 MFI; in test [11], 80 MFI.
With “human IL-2 (from UniProt P60568 21-153) (ligand)”, the EC50; IL-2 dose response; NK92/hIL7R/STAT3-luc in test [12] amounted to 0.033 nM; in test [13], 0.045 nM.
On to “human IL-9 (from UniProt P15248 19-144) (ligand)”, for which the values for the EC50; IL-9 dose response; NK92/hIL7R/STAT3-luc in [12] and in test [13] were 0.02 nM and 0.033 nM, respectively.
Regarding “human IL-15 (from UniProt P40933 49-162) (ligand)”, the EC50; IL-15 dose response; NK92/hIL7R/STAT3-luc in test [12] turned out to be 0.15 nM; in test [13], 0.23 nM.
On to “human IL-21 (from UniProt Q9HBE4 32-162) (ligand)”, for which the EC50; IL-21 dose response; NK92/hIL7R/STAT3-luc in test [12] is 0.0031 nM; in test [13] it was 0.006 nM.
